# Measurements reported in PMC8307404, “Crystal Structure-Guided Design of Bisubstrate Inhibitors and Photoluminescent Probes for Protein Kinases of the PIM Family” (Molecules, 2021).
# Square brackets hold non-standard residues; d marks the D form. Peptide text beside a SMILES is read from it. * marks the point of attachment. X3 = O=C(CCCCCNCc1nc2c(sc3cc(Br)cnc32)c(=O)[nH]1)*
# Columns and labels:
# Test in all cases: Kinase profiling (radiometric filter-binding)
# Assay type in all cases: biochemical
# CDK9-Cyclin T1 = CDK9-Cyclin T1 (Homo sapiens, UniProt P50750); settings: CDK9-Cyclin T1, 1 µM inhibitor; read-out: Residual activity, %
# How it was run: (§1)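 Each compound, at 1 µM final, is screened against human protein kinases in a radiometric filter-binding format. ATP is set at or under the KM of each kinase. Values give retained activity relative to a control lacking inhibitor.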
# DDR2 = molecular target: T1, DDR2 (Homo sapiens, UniProt Q16832); settings: DDR2, 1 µM inhibitor; read-out: Residual activity, %
# T1 sequence (Q16832 22-855): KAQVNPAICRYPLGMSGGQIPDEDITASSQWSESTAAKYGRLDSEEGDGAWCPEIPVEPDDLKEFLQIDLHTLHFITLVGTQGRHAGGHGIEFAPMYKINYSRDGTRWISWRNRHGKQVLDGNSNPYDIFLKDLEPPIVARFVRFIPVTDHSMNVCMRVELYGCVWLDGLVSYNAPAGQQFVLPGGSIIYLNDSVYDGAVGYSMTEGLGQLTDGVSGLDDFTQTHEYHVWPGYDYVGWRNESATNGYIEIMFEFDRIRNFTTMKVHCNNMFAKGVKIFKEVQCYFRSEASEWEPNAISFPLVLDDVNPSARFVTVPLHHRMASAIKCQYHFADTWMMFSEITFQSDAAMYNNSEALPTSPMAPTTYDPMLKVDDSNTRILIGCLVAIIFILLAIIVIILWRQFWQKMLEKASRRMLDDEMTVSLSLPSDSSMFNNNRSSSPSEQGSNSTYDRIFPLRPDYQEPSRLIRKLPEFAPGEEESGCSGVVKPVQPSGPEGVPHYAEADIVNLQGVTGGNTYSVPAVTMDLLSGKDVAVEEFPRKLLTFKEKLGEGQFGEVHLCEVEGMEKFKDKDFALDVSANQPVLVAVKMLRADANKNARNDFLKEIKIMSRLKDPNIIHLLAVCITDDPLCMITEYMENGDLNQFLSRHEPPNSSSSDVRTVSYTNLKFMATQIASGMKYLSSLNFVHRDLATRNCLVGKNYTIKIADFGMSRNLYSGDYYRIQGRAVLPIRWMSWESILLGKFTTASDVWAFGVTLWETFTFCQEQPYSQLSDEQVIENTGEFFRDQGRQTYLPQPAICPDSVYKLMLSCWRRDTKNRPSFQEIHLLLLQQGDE
# How it was run: as §1
# EPH-A2 = EPH-A2 (Homo sapiens, UniProt P29317); settings: EPH-A2, 1 µM inhibitor; read-out: Residual activity, %
# How it was run: as §1
# FGF-R1 = FGF-R1 (Homo sapiens, UniProt P11362); settings: FGF-R1, 1 µM inhibitor; read-out: Residual activity, %
# How it was run: as §1
# MELK = MELK (Homo sapiens, UniProt Q14680); settings: 1 µM inhibitor, read-out: Residual activity, %
# How it was run: as §1
# MLK3 = MLK3 (Homo sapiens, UniProt Q16584); settings: MLK3, 1 µM inhibitor; read-out: Residual activity, %
# How it was run: as §1
# PIM1 = PIM1 (Homo sapiens, UniProt P11309); settings: PIM1, 1 µM inhibitor; for remaining activity at 1 µM: read-out: Residual activity, %
# How it was run: as §1
# PIM3 = PIM3 (Homo sapiens, UniProt Q86V86); settings: PIM3, 1 µM inhibitor; read-out: Residual activity, %
# How it was run: as §1
# PKC = PKC (Homo sapiens, UniProt P17252); settings: first of two PKC lines (Greek letter lost), 1 µM inhibitor, read-out: Residual activity, %
# How it was run: as §1
# PLK1 = PLK1 (Homo sapiens, UniProt P53350); settings: PLK1, 1 µM inhibitor; read-out: Residual activity, %
# How it was run: as §1
# PRK2 = PRK2 (Homo sapiens, UniProt Q16513); settings: PRK2, 1 µM inhibitor; read-out: Residual activity, %
# How it was run: as §1
# TAK1 = molecular target: T2, TAK1 (Homo sapiens, UniProt O43318); settings: TAK1, 1 µM inhibitor; read-out: Residual activity, %
# T2 sequence (O43318 1-303 limits assumed): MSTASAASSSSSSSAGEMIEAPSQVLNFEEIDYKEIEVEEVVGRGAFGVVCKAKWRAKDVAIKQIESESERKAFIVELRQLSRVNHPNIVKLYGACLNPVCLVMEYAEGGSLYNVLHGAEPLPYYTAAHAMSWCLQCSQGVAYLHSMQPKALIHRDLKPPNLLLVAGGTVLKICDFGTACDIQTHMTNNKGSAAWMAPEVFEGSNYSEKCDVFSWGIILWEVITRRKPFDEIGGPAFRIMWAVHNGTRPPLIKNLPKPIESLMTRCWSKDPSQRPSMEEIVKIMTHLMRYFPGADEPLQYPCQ
# How it was run: as §1
# TTBK2 = TTBK2 (Homo sapiens, UniProt Q6IQ55); settings: TTBK2, 1 µM inhibitor; read-out: Residual activity, %
# How it was run: as §1
# TrkA = TrkA (Homo sapiens, UniProt P04629); settings: 1 µM inhibitor, read-out: Residual activity, %
# How it was run: as §1
# Sequence of CDK9-Cyclin T1 (P50750 whole entry): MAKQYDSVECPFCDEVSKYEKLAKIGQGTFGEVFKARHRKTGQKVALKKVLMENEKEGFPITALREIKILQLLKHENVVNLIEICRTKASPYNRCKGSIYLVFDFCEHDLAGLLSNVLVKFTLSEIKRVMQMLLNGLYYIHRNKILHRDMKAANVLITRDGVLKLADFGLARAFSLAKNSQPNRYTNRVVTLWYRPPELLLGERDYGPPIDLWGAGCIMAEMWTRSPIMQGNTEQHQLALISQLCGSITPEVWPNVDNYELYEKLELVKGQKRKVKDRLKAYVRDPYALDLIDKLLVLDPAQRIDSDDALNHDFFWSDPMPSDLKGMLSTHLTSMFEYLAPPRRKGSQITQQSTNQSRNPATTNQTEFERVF
# Sequence of CDK9-Cyclin T1 (O60563 whole entry partner): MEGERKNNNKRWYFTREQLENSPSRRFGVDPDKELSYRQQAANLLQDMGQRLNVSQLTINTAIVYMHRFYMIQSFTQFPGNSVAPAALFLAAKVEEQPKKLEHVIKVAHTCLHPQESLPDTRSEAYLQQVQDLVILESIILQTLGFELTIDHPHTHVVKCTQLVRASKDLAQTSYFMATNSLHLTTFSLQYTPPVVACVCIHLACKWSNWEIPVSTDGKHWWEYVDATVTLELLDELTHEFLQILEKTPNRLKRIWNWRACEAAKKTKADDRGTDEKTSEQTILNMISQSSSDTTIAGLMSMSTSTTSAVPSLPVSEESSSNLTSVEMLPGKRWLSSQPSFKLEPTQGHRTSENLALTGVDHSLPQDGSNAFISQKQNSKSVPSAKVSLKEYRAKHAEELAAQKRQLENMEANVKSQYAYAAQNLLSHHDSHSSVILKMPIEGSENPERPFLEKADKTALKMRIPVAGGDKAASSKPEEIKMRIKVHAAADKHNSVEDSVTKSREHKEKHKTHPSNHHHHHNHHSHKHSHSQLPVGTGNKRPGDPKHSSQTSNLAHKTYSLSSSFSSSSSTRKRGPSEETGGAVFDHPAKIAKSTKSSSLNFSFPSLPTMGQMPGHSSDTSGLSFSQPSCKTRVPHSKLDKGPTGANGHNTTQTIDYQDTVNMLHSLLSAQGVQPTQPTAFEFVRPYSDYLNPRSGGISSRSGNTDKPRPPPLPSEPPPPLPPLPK
# Sequence of PIM1 (P11309 whole entry): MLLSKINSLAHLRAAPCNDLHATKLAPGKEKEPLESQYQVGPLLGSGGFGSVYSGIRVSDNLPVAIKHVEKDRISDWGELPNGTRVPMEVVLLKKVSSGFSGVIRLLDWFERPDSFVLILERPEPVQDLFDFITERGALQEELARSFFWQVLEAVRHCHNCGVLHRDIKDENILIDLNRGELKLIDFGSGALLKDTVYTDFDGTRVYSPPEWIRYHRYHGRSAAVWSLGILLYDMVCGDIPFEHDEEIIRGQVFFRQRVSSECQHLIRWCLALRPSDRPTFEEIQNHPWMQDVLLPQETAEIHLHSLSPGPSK
# Sequence of TrkA (P04629 33-796): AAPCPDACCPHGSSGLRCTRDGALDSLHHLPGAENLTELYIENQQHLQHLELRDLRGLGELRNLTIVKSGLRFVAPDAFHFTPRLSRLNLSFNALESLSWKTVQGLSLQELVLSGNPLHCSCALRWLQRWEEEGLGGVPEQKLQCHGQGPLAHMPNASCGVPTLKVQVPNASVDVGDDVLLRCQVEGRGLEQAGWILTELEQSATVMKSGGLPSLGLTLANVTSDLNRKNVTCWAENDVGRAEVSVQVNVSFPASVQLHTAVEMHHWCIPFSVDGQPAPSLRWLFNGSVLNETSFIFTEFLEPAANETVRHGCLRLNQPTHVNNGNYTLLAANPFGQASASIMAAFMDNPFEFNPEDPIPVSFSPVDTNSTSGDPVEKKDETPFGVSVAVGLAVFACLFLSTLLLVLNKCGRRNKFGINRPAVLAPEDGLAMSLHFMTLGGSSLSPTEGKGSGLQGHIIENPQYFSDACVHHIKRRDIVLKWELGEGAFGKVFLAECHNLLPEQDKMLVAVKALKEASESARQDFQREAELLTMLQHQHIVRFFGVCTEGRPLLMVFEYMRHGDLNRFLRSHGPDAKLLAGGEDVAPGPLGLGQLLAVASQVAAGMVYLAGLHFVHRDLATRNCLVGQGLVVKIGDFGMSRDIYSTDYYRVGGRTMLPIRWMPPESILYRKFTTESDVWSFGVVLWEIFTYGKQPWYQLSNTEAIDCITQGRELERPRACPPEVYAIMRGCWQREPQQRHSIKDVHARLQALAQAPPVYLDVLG
# Sequence of EPH-A2 (P29317 24-976): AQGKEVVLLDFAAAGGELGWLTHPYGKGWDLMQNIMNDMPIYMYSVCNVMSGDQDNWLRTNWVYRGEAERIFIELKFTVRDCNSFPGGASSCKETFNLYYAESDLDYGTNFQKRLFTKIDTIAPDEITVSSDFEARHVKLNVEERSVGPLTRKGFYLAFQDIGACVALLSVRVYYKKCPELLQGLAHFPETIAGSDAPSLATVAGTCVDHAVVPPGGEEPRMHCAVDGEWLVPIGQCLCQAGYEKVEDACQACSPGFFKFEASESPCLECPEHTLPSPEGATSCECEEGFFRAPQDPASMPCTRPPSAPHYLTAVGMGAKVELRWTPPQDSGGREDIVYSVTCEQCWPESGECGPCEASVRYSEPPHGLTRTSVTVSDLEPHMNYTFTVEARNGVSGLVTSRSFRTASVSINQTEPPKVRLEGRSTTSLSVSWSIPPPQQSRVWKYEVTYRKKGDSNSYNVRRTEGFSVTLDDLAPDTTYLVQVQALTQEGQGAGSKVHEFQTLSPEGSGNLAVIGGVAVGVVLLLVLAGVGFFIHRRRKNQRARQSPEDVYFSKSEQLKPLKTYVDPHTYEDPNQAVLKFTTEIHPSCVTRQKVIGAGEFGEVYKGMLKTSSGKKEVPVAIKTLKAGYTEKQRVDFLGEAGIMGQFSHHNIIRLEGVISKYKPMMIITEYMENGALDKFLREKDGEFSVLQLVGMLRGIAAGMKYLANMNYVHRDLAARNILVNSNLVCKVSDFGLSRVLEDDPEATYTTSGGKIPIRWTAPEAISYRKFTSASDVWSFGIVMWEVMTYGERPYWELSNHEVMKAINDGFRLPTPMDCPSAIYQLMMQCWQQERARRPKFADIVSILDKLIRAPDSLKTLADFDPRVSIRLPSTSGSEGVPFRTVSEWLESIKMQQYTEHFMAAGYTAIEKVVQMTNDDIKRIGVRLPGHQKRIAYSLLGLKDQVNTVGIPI
# Sequence of MELK (Q14680 whole entry): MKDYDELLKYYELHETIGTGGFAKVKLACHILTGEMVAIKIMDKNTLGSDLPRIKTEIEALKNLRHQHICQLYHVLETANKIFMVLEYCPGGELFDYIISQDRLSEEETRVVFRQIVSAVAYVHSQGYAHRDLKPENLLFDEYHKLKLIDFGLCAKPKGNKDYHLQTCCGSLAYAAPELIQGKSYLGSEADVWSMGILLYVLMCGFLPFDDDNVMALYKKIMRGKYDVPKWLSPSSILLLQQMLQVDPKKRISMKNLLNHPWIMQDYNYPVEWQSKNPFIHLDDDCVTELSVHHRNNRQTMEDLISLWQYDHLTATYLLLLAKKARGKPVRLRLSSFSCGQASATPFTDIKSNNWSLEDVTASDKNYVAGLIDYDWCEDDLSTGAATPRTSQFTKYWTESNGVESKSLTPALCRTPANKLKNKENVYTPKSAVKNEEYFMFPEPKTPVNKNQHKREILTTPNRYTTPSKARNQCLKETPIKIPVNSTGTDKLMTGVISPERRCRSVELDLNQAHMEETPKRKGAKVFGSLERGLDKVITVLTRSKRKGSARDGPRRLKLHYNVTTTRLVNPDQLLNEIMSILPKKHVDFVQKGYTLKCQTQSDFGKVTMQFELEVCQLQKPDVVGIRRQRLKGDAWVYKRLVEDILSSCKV
# Sequence of MLK3 (Q16584 whole entry): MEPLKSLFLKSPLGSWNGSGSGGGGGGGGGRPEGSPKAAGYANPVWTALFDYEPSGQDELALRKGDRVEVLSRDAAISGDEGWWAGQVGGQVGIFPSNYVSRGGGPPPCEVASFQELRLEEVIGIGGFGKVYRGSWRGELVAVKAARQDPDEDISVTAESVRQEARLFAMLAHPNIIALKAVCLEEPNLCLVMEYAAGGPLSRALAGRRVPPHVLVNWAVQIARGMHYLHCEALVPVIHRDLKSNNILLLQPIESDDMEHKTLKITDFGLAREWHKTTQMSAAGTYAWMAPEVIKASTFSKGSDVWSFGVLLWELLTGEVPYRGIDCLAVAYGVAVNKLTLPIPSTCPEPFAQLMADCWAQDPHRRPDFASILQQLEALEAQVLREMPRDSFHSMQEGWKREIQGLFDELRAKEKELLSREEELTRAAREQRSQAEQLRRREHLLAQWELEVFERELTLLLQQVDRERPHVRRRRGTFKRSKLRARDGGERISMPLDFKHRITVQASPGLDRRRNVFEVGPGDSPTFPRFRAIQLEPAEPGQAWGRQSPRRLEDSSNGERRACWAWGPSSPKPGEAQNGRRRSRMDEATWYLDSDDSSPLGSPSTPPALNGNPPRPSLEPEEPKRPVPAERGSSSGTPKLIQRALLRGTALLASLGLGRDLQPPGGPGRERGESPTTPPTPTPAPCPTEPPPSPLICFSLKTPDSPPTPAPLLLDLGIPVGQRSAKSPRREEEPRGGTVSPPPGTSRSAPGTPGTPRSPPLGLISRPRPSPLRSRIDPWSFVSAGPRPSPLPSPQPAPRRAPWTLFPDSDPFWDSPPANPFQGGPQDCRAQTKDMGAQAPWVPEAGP
smiles,measurement,setting,value
"N=C(N)NCCC[C@@H](NC(=O)CCCCCNC(=O)Cn1cnc2c(I)c(I)c(I)c(I)c21)C(=O)N[C@H](CCCNC(=N)N)C(=O)N[C@H](CCCNC(=N)N)C(=O)N[C@H](CCCNC(=N)N)C(=O)N[C@H](CCCNC(=N)N)C(=O)N[C@H](CCCNC(=N)N)C(=O)N[C@H](CCCCN)C(N)=O [ARC-3125, TIBI-CH2-C(=O)-Ahx-(D-Arg)6-D-Lys-NH2]",remaining activity at 1 µM,CDK9-Cyclin T1,55 ± 1%
same,remaining activity at 1 µM,DDR2,84 ± 13%
same,remaining activity at 1 µM,EPH-A2,108 ± 2%
same,remaining activity at 1 µM,FGF-R1,100 ± 19%
same,remaining activity at 1 µM,MELK,34 ± 4%
same,remaining activity at 1 µM,MLK3,98 ± 2%
same,remaining activity at 1 µM,PIM1,0%
same,remaining activity at 1 µM,PIM3,7 ± 1%
same,remaining activity at 1 µM,PKC,81 ± 9%
same,remaining activity at 1 µM,PLK1,40 ± 4%
same,remaining activity at 1 µM,PRK2,16 ± 6%
same,remaining activity at 1 µM,TAK1,9 ± 4%
same,remaining activity at 1 µM,TTBK2,101 ± 24%
same,remaining activity at 1 µM,TrkA,97 ± 7%
"N=C(N)NCCC[C@@H](NC(=O)CNC(=O)[C@@H](CCCNC(=N)N)NC(=O)[C@@H](CCCNC(=N)N)NC(=O)CCCCCCCNCc1nc2c(sc3cc(Br)cnc32)c(=O)[nH]1)C(=O)N[C@H](CCCCN)C(N)=O [Compound 1, BPTP-Aoc-(D-Arg)2-Gly-D-Arg-D-Lys-NH2]",remaining activity at 1 µM,CDK9-Cyclin T1,110 ± 10%
same,remaining activity at 1 µM,DDR2,104 ± 22%
same,remaining activity at 1 µM,EPH-A2,116 ± 5%
same,remaining activity at 1 µM,FGF-R1,142 ± 8%
same,remaining activity at 1 µM,MELK,86 ± 5%
same,remaining activity at 1 µM,MLK3,105 ± 5%
same,remaining activity at 1 µM,PIM1,9%
same,remaining activity at 1 µM,PIM3,17%
same,remaining activity at 1 µM,PKC,112 ± 2%
same,remaining activity at 1 µM,PLK1,99 ± 1%
same,remaining activity at 1 µM,PRK2,92 ± 2%
same,remaining activity at 1 µM,TAK1,107 ± 3%
same,remaining activity at 1 µM,TTBK2,109 ± 6%
same,remaining activity at 1 µM,TrkA,106 ± 17%
"N=C(N)NCCC[C@@H](NC(=O)CNC(=O)[C@@H](CCCNC(=N)N)NC(=O)[C@@H](CCCNC(=N)N)NC(=O)CCCCCCCNCc1nc2c(sc3ccc(Br)cc32)c(=O)[nH]1)C(=O)N[C@H](CCCCN)C(N)=O [Compound 2, BBTP-Aoc-(D-Arg)2-Gly-D-Arg-D-Lys-NH2]",remaining activity at 1 µM,CDK9-Cyclin T1,101 ± 20%
same,remaining activity at 1 µM,DDR2,107 ± 7%
same,remaining activity at 1 µM,EPH-A2,113 ± 10%
same,remaining activity at 1 µM,FGF-R1,126 ± 10%
same,remaining activity at 1 µM,MELK,75 ± 9%
same,remaining activity at 1 µM,MLK3,107 ± 1%
same,remaining activity at 1 µM,PIM1,5 ± 3%
same,remaining activity at 1 µM,PIM3,4 ± 1%
same,remaining activity at 1 µM,PKC,102 ± 4%
same,remaining activity at 1 µM,PLK1,99 ± 1%
same,remaining activity at 1 µM,PRK2,94 ± 12%
same,remaining activity at 1 µM,TAK1,101 ± 1%
same,remaining activity at 1 µM,TTBK2,125 ± 12%
same,remaining activity at 1 µM,TrkA,128 ± 13%
"N=C(N)NCCC[C@@H](NC(=O)CCCCCNCc1nc2c(sc3cc(Br)cnc32)c(=O)[nH]1)C(=O)N[C@H](CCCNC(=N)N)C(=O)N[C@H](CCCNC(=N)N)C(=O)N[C@H](CCCNC(=N)N)C(=O)N[C@H](CCCNC(=N)N)C(=O)N[C@H](CCCNC(=N)N)C(=O)N[C@H](CCCCN)C(N)=O [ARC-3126, BPTP-Ahx-(D-Arg)6-D-Lys-NH2] (X3-[dR][dR][dR][dR][dR][dR][dK]-NH2)",remaining activity at 1 µM,CDK9-Cyclin T1,104 ± 3%
same,remaining activity at 1 µM,DDR2,93 ± 3%
same,remaining activity at 1 µM,EPH-A2,113 ± 13%
same,remaining activity at 1 µM,FGF-R1,102 ± 3%
same,remaining activity at 1 µM,MELK,79 ± 1%
same,remaining activity at 1 µM,MLK3,117 ± 10%
same,"Residual activity, %",PIM1,zero
same,remaining activity at 1 µM,PIM1,0%
same,remaining activity at 1 µM,PIM3,13%
same,remaining activity at 1 µM,PKC,115 ± 17%
same,remaining activity at 1 µM,PLK1,50 ± 16%
same,remaining activity at 1 µM,PRK2,58 ± 15%
same,remaining activity at 1 µM,TAK1,88 ± 17%
same,remaining activity at 1 µM,TTBK2,77 ± 2%
same,remaining activity at 1 µM,TrkA,112 ± 21%
"N=C(N)NCCC[C@@H](NC(=O)CNC(=O)[C@@H](CCCNC(=N)N)NC(=O)[C@@H](CCCNC(=N)N)NC(=O)Cn1cc(CNCc2nc3c(sc4ccc(Br)cc43)c(=O)[nH]2)nn1)C(=O)N[C@H](CCCCN)C(N)=O [Compound 3, BBTP-Amt-(D-Arg)2-Gly-D-Arg-D-Lys-NH2]",remaining activity at 1 µM,CDK9-Cyclin T1,90 ± 18%
same,remaining activity at 1 µM,DDR2,112 ± 6%
same,remaining activity at 1 µM,EPH-A2,132 ± 6%
same,remaining activity at 1 µM,FGF-R1,110 ± 2%
same,remaining activity at 1 µM,MELK,73 ± 11%
same,remaining activity at 1 µM,MLK3,94 ± 2%
same,remaining activity at 1 µM,PIM1,5 ± 1%
same,remaining activity at 1 µM,PIM3,6%
same,remaining activity at 1 µM,PKC,110 ± 5%
same,remaining activity at 1 µM,PLK1,97 ± 7%
same,remaining activity at 1 µM,PRK2,67 ± 4%
same,remaining activity at 1 µM,TAK1,99 ± 10%
same,remaining activity at 1 µM,TTBK2,105 ± 15%
same,remaining activity at 1 µM,TrkA,95 ± 2%
